The source of these data is patent CN109957013A.

Several values for one entry are separate records, joined by “and”; a condition that tells them apart may be missing. Identical values can stand only once.

Test [1] concerns the target H7N9病毒的血凝素HA (H7N9病毒). Nature of the test: ELISA, positive control well. (An ELISA detects its analyte on a solid surface through an enzyme-linked reagent.)
Test [2] addresses H7N9病毒的血凝素HA (H7N9病毒). Nature of the test: ELISA of 293F supernatant with recombinant 7O2.

Take 阳性对照: the 450 (absorbance at 450 nm) in test [1] was 1.15 (2×) and 1.21.

B1: 抗H7N9全人源单克隆抗体7O2 (antibody, V domains shown)
VH: EVQLVESGGGLVQPGGSLRLSCAASGFTFSSYWMHWVRQAPGKGLVWVSRINSDGSSTSYADSVKGRFTISRDNAKNTLYLQMNSLRAEDTAVYYCARRSKTGKFDPWGQGTLVTVSS
VL: SYELTQPPSVSVSPGQTARITCSGDALPKQYAYWYQQKPGQAPVLVIYKDSERPSGIPERFSGSSSGTTVTLTISGVQAEDEADYYCQSADSSGTLEVFGGGTKLTVLV
As for B1, in test [2], the 450 (absorbance at 450 nm) is 3 and 3.12 and 2.96.
